# Experimental data published in patent US20110162109A1 (BASF PLANT SCIENCE, published 2011).
# T1: HUB1 (Histone Monoubiquitination 1), At2g44950, Arabidopsis thaliana (Arabidopsis thaliana, UniProt Q8RXD6 1-878)
# T1 construct: Full length HUB1; In the TAP experiments N-terminally fused to the TAP tag or the GS-TAP tag; in yeast two-hybrid fused to AD (pDEST22) or BD (pDEST32); all these constructs are written under this one entry; also called HUB1fl; full length HUB1
# T1 sequence: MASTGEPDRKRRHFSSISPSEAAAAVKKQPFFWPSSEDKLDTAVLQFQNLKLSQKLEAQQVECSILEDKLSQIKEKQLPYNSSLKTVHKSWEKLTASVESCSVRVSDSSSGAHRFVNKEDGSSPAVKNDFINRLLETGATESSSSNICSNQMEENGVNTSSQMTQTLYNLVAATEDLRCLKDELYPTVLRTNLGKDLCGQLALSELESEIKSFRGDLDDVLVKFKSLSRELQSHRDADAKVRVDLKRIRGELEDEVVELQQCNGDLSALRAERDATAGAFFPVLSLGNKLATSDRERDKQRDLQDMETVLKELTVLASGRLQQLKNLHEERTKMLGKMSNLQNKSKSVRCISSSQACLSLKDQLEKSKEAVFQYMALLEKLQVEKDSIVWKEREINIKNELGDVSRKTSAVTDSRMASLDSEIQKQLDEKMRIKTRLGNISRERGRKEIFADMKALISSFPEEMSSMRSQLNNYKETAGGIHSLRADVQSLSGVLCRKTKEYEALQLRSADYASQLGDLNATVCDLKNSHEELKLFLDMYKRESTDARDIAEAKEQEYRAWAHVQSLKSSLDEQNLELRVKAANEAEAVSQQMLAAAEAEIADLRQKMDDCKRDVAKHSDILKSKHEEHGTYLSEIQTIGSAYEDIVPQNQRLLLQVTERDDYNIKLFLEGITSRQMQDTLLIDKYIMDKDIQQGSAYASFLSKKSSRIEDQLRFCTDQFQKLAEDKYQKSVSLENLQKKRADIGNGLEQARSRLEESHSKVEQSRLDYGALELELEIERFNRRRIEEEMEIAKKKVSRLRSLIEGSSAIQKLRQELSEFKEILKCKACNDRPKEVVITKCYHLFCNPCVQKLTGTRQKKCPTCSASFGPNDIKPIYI
# T2: LUG/RON2, At4G32551 (Arabidopsis thaliana, UniProt Q9FUY2 1-931)
# T2 construct: Endogenous prey in TAP; fusion protein in yeast two-hybrid
# T2 sequence (looked up): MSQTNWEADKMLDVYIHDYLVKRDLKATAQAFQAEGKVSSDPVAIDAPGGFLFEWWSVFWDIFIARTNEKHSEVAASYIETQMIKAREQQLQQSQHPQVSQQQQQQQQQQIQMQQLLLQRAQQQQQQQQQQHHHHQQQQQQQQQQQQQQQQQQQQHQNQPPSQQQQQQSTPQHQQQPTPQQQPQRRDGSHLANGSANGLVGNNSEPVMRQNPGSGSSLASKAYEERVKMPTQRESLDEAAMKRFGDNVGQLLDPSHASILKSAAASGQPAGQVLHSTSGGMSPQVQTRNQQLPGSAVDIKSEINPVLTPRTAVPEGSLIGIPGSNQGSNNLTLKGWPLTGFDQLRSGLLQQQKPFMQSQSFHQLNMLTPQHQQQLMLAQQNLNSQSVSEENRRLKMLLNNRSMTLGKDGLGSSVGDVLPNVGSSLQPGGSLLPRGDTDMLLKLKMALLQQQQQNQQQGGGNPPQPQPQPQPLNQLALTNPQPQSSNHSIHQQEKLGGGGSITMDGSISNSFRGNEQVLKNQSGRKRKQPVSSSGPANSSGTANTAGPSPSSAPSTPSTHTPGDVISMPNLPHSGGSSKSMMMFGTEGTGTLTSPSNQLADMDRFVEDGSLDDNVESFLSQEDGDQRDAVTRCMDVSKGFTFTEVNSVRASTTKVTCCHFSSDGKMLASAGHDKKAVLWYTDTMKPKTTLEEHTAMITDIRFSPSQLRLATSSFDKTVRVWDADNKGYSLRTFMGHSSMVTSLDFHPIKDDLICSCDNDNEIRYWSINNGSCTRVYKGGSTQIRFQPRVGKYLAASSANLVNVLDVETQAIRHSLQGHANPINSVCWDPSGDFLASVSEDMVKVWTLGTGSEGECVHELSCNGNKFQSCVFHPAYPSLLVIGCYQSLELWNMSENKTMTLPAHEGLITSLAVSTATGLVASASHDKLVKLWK
# B1: SEUSS, At1g43850 (other, Arabidopsis thaliana, UniProt Q8W234 1-877, looked up)
# chain: MVPSEPPNPVGGGENVPPSILGGQGGAPLPSQPAFPSLVSPRTQFGNNMSMSMLGNAPNISSLLNNQSFVNGIPGSMISMDTSGAESDPMSNVGFSGLSSFNASSMVSPRSSGQVQGQQFSNVSANQLLAEQQRNKKMETQSFQHGQQQSMQQQFSTVRGGGLAGVGPVKMEPGQVSNDQQHGQVQQQQQKMLRNLGSVKLEPQQIQAMRNLAQVKMEPQHSEQSLFLQQQQRQQQQQQQQQFLQMPGQSPQAQMNIFQQQRLMQLQQQQLLKSMPQQRPQLPQQFQQQNLPLRPPLKPVYEPGMGAQRLTQYMYRQQHRPEDNNIEFWRKFVAEYFAPNAKKRWCVSMYGSGRQTTGVFPQDVWHCEICNRKPGRGFEATAEVLPRLFKIKYESGTLEELLYVDMPRESQNSSGQIVLEYAKATQESVFEHLRVVRDGQLRIVFSPDLKIFSWEFCARRHEELIPRRLLIPQVSQLGSAAQKYQQAAQNATTDSALPELQNNCNMFVASARQLAKALEVPLVNDLGYTKRYVRCLQISEVVNSMKDLIDYSRETRTGPIESLAKFPRRTGPSSALPGPSPQQASDQLRQQQQQQQQQQQQQQQQQQQQQQQQTVSQNTNSDQSSRQVALMQGNPSNGVNYAFNAASASTSTSSIAGLIHQNSMKGRHQNAAYNPPNSPYGGNSVQMQSPSSSGTMVPSSSQQQHNLPTFQSPTSSSNNNNPSQNGIPSVNHMGSTNSPAMQQAGEVDGNESSSVQKILNEILMNNQAHNNSSGGSMVGHGSFGNDGKGQANVNSSGVLLMNGQVNNNNNTNIGGAGGFGGGIGQSMAANGINNINGNNSLMNGRVGMMVRDPNGQQDLGNQLLGAVNGFNNFDWNA
# notes: As prey endogenous; as bait N-terminal GS-TAP fusion; in yeast two-hybrid an AD fusion
# Experiments:
# [1] = target: T1, HUB1 (Histone Monoubiquitination 1), …; assay: TAP with N-terminally TAP-tagged HUB1, mass spectrometry; column To be confirmed (interacted only once)
# Protocol: Because the RING proteins have their functionally important domain at the C-terminus, an N-terminal fusion was prepared instead of the traditional C-terminal fusion by cloning both full length and the point mutant form of HUB1 (HUB1pm, HUB1fl). The Arabidopsis cell cultures were transformed with the two constructs and cultivated on 10 litre scale, harvested and purified by TAP (Van Leene et al., Mol. Cell. Proteomics 6, 1226-38, 2007). The protein extracts were separated on 1-D SDS-PAGE gels and isolated from gel for protein identification by mass spectrometry (Laukens et al., Proteomics. 4, 720-7, 2004, Van Leene et al., 2007). Two cut offs were used resulting in “confirmed” and “to be confirmed” candidate interactor lists (Table I).
# In the data set of confirmed interactors TAP HUB1 and HUB2 were present, […] the dimer formation between the homologues. In addition, the acetyltransferase GCN5, RNA binding proteins and a KH domain protein were identified as HUB1 interacting proteins. Most of these proteins are known to be localized in nucleus or nucleoli. GFP constructs of HUB1 have also been localized to nucleus (Liu et al., 2007). When HUB1pm was used for TAP purification no HUB2 could be identified as an interacting protein.
# [2] = target: UBC2, At2g02760 (Arabidopsis thaliana) (UniProt P42745); assay: GS-TAP purification + MALDI-TOF-TOF MS, bait UBC2 (second block, as the rows stand); expectance is the MS identification score
# LUG/RON2, At4G32551 = target: T2, LUG/RON2, At4G32551; assay: yeast two-hybrid
# Sequence of UBC2, At2g02760 (Arabidopsis thaliana) (P42745 whole entry): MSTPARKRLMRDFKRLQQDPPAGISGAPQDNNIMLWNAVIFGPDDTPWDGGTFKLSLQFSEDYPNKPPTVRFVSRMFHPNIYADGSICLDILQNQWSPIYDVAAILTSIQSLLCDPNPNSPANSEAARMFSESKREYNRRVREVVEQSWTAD
binder,measurement,setting,value
B1,binding result,[1],binds
same,Expectance,[2],1e-24
same,binding result,"LUG/RON2, At4G32551",binds
